The target in data set [1] is T1, Rhizobium sp. Histamine Dehydrogenase (Rsp HDH) (Rhizobium sp. 4-9, UniProt Q60I59).
T1 construct: full length (693 aa native), synthetic E. coli-optimised gene in pET28a(+), C-terminal 6xHis tag kept; E. coli BL21 Gold (DE3); IMAC purified; homodimer with 6-S-Cys-FMN, [4Fe-4S], ADP
T1 sequence (Q60I59 1-693): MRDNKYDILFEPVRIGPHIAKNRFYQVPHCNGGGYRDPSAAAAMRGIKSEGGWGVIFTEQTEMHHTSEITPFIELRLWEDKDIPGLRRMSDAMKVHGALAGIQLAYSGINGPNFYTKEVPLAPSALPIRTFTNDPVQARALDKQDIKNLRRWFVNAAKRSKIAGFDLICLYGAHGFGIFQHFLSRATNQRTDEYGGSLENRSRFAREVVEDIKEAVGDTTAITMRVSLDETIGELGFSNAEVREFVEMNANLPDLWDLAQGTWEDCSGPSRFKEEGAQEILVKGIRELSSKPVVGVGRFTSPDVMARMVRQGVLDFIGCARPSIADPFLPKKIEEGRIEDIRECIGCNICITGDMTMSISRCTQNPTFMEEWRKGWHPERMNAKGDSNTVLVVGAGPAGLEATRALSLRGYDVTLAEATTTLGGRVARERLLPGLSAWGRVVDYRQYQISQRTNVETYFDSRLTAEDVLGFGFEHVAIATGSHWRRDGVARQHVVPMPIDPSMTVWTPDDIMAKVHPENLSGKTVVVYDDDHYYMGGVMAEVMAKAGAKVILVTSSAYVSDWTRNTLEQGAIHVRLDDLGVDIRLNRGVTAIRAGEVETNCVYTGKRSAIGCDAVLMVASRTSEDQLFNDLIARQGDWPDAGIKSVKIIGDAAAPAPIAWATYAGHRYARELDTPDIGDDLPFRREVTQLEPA
In words: WST-8 / 1-methoxy PMS colorimetric initial rate, […] nm, substrate inhibition fit. Format: biochemical. The note with it: substrate inhibition by histamine itself; 1-methoxy PMS electron carrier; glycine buffer pH 9.0, 37 °C. From the text:
(§1) Histamine Dehydrogenase (Rsp HDH)
(In general: Tetrazolium assays rely on reduction of a dye to a coloured formazan, in cell work by metabolically active cells.)

Substrate in data set [2]: N=C(N)NCCCCN
In words: purified protein. Type of data set: biochemical, Rhizobium sp. 4-9. The note with it: 1-methoxy PMS electron carrier, glycine buffer pH 9.0, 37 °C.
Description: as §1

Substrate in data set [3]: NCCc1c[nH]cn1
The data set can be described thus: purified protein. Type of data set: biochemical, Rhizobium sp. 4-9. The note with it: 1-methoxy PMS electron carrier, glycine buffer pH 9.0, 37 °C.
Description: as §1

Broadly, the Km is the concentration of substrate that gives half-maximal velocity.

For `NCCc1c[nH]cn1` [histamine], in data set [1], the “Observed Ki” value came to 2059.0 µM.

B1: Rhizobium sp. Histamine Dehydrogenase (Rsp HDH) (Rhizobium sp. 4-9) (protein)
chain: MRDNKYDILFEPVRIGPHIAKNRFYQVPHCNGGGYRDPSAAAAMRGIKSEGGWGVIFTEQTEMHHTSEITPFIELRLWEDKDIPGLRRMSDAMKVHGALAGIQLAYSGINGPNFYTKEVPLAPSALPIRTFTNDPVQARALDKQDIKNLRRWFVNAAKRSKIAGFDLICLYGAHGFGIFQHFLSRATNQRTDEYGGSLENRSRFAREVVEDIKEAVGDTTAITMRVSLDETIGELGFSNAEVREFVEMNANLPDLWDLAQGTWEDCSGPSRFKEEGAQEILVKGIRELSSKPVVGVGRFTSPDVMARMVRQGVLDFIGCARPSIADPFLPKKIEEGRIEDIRECIGCNICITGDMTMSISRCTQNPTFMEEWRKGWHPERMNAKGDSNTVLVVGAGPAGLEATRALSLRGYDVTLAEATTTLGGRVARERLLPGLSAWGRVVDYRQYQISQRTNVETYFDSRLTAEDVLGFGFEHVAIATGSHWRRDGVARQHVVPMPIDPSMTVWTPDDIMAKVHPENLSGKTVVVYDDDHYYMGGVMAEVMAKAGAKVILVTSSAYVSDWTRNTLEQGAIHVRLDDLGVDIRLNRGVTAIRAGEVETNCVYTGKRSAIGCDAVLMVASRTSEDQLFNDLIARQGDWPDAGIKSVKIIGDAAAPAPIAWATYAGHRYARELDTPDIGDDLPFRREVTQLEPA
notes: full length (693 aa native), synthetic E. coli-optimised gene in pET28a(+), C-terminal 6xHis tag kept; E. coli BL21 Gold (DE3); IMAC purified; homodimer with 6-S-Cys-FMN, [4Fe-4S], ADP
As for B1, the Km in data set [2] was 130.1 µM; in data set [3] it was 38.24 µM.

B2: Rhizobium sp. Histamine Dehydrogenase (Rsp HDH) (Rhizobium sp. 4-9; F72T) (protein)
chain: MRDNKYDILFEPVRIGPHIAKNRFYQVPHCNGGGYRDPSAAAAMRGIKSEGGWGVIFTEQTEMHHTSEITPTIELRLWEDKDIPGLRRMSDAMKVHGALAGIQLAYSGINGPNFYTKEVPLAPSALPIRTFTNDPVQARALDKQDIKNLRRWFVNAAKRSKIAGFDLICLYGAHGFGIFQHFLSRATNQRTDEYGGSLENRSRFAREVVEDIKEAVGDTTAITMRVSLDETIGELGFSNAEVREFVEMNANLPDLWDLAQGTWEDCSGPSRFKEEGAQEILVKGIRELSSKPVVGVGRFTSPDVMARMVRQGVLDFIGCARPSIADPFLPKKIEEGRIEDIRECIGCNICITGDMTMSISRCTQNPTFMEEWRKGWHPERMNAKGDSNTVLVVGAGPAGLEATRALSLRGYDVTLAEATTTLGGRVARERLLPGLSAWGRVVDYRQYQISQRTNVETYFDSRLTAEDVLGFGFEHVAIATGSHWRRDGVARQHVVPMPIDPSMTVWTPDDIMAKVHPENLSGKTVVVYDDDHYYMGGVMAEVMAKAGAKVILVTSSAYVSDWTRNTLEQGAIHVRLDDLGVDIRLNRGVTAIRAGEVETNCVYTGKRSAIGCDAVLMVASRTSEDQLFNDLIARQGDWPDAGIKSVKIIGDAAAPAPIAWATYAGHRYARELDTPDIGDDLPFRREVTQLEPA
notes: as for B1
In the case of B2, the Km in data set [2] is recorded as 112.9 µM; in data set [3], 194.6 µM.

B3: Rhizobium sp. Histamine Dehydrogenase (Rsp HDH) (Rhizobium sp. 4-9; N110V) (protein)
chain: MRDNKYDILFEPVRIGPHIAKNRFYQVPHCNGGGYRDPSAAAAMRGIKSEGGWGVIFTEQTEMHHTSEITPFIELRLWEDKDIPGLRRMSDAMKVHGALAGIQLAYSGIVGPNFYTKEVPLAPSALPIRTFTNDPVQARALDKQDIKNLRRWFVNAAKRSKIAGFDLICLYGAHGFGIFQHFLSRATNQRTDEYGGSLENRSRFAREVVEDIKEAVGDTTAITMRVSLDETIGELGFSNAEVREFVEMNANLPDLWDLAQGTWEDCSGPSRFKEEGAQEILVKGIRELSSKPVVGVGRFTSPDVMARMVRQGVLDFIGCARPSIADPFLPKKIEEGRIEDIRECIGCNICITGDMTMSISRCTQNPTFMEEWRKGWHPERMNAKGDSNTVLVVGAGPAGLEATRALSLRGYDVTLAEATTTLGGRVARERLLPGLSAWGRVVDYRQYQISQRTNVETYFDSRLTAEDVLGFGFEHVAIATGSHWRRDGVARQHVVPMPIDPSMTVWTPDDIMAKVHPENLSGKTVVVYDDDHYYMGGVMAEVMAKAGAKVILVTSSAYVSDWTRNTLEQGAIHVRLDDLGVDIRLNRGVTAIRAGEVETNCVYTGKRSAIGCDAVLMVASRTSEDQLFNDLIARQGDWPDAGIKSVKIIGDAAAPAPIAWATYAGHRYARELDTPDIGDDLPFRREVTQLEPA
notes: as for B1
B3: the figures for the Km in data set [2] and in data set [3] were 170.1 µM and 159.5 µM, respectively.

These data come from PMC10180351, “Modulating Substrate Specificity of Rhizobium sp. Histamine Dehydrogenase through Protein Engineering for Food Quality Applications” (Molecules, 2023).
